Results: patent US20260274968A1 (FUSE BIOTHERAPEUTICS, published 2026)

Tests used:
Test in all cases: cell-based or functional assay
[1] = biological target: T1, human IL-18 receptor complex (IL-18Rα/β) (human, UniProt Q13478 19-541; O95256 20-599)
T1 sequence (looked up) 1: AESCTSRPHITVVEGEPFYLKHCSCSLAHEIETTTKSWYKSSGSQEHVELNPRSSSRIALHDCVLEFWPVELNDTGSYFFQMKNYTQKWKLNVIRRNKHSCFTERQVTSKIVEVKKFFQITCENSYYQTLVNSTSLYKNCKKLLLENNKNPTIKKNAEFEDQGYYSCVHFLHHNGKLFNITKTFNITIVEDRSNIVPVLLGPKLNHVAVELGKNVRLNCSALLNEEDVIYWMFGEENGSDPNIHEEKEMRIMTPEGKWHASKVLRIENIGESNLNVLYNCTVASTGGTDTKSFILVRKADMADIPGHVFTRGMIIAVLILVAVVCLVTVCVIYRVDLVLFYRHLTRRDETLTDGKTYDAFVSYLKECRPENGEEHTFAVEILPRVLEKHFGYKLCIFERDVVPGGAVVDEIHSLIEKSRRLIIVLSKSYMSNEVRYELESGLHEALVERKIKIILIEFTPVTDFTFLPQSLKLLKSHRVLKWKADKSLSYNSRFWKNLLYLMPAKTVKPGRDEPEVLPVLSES
T1 sequence (looked up) 2: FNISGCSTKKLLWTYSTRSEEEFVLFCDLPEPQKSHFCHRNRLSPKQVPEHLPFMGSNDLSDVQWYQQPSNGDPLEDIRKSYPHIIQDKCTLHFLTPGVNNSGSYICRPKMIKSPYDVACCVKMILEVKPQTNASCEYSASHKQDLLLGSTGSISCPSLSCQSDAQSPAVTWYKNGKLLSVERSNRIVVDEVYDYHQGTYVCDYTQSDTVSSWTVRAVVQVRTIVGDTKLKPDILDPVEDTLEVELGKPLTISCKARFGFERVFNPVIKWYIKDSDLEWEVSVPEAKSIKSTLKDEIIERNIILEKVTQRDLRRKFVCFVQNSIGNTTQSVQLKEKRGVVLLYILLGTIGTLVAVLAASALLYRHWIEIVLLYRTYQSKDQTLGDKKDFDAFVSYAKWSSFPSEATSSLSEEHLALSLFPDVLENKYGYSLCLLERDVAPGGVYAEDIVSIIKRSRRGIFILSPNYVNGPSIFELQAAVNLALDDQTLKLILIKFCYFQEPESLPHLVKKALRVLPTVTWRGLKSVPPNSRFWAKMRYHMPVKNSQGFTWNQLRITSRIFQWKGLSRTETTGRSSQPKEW

[2] = biological target: T2, human recombinant IL-18-BP (human, UniProt O95998 31-194)
T2 sequence (looked up): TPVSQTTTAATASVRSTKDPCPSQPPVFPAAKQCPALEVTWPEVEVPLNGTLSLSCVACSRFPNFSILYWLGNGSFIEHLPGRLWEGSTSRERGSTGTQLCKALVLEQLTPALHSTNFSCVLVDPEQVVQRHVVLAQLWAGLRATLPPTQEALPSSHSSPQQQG

[3] = biological target: T1, human IL-18 receptor complex (IL-18Rα/β); remark: listed apart in the source
[4] = biological target: T1, human IL-18 receptor complex (IL-18Rα/β); remark: listed apart in the source

B1: FUSE-782 (antibody, human IgG1, kappa, L234A L235A)
heavy 1: QVQLVESGGGVVQPGRSLRLDCKASGITFSNSGMHWVRQAPGKGLEWVAVIWYDGSKRYYADSVKGRFTISRDNSKNTLFLQMSSLRAEDTAVYYCATNDDYWGQGTLVTVSSASTKGPSVFPLAPSSKSTSGGTAALGCLVKDYFPEPVTVSWNSGALTSGVHTFPAVLQSSGLYSLSSVVTVPSSSLGTQTYICNVNHKPSNTKVDKKVEPKSCDKTHTCPPCPAPEAAGGPSVFLFPPKPKDTLMISRTPEVTCVVVDVSHEDPEVKFNWYVDGVEVHNAKTKPREEQYNSTYRVVSVLTVLHQDWLNGKEYKCKVSNKALPAPIEKTISKAKGQPREPQVYTLPPSREEMTKNQVSLSCAVKGFYPSDIAVEWESNGQPENNYKTTPPVLDSDGSFFLVSKLTVDKSRWQQGNVFSCSVMHEALHNRFTQKSLSLSPGK
heavy 2: QVQLVESGGGVVQPGRSLRLDCKASGITFSNSGMHWVRQAPGKGLEWVAVIWYDGSKRYYADSVKGRFTISRDNSKNTLFLQMSSLRAEDTAVYYCATNDDYWGQGTLVTVSSASTKGPSVFPLAPSSKSTSGGTAALGCLVKDYFPEPVTVSWNSGALTSGVHTFPAVLQSSGLYSLSSVVTVPSSSLGTQTYICNVNHKPSNTKVDKKVEPKSCDKTHTCPPCPAPEAAGGPSVFLFPPKPKDTLMISRTPEVTCVVVDVSHEDPEVKFNWYVDGVEVHNAKTKPREEQYNSTYRVVSVLTVLHQDWLNGKEYKCKVSNKALPAPIEKTISKAKGQPREPQVYTLPPSREEMTKNQVSLWCLVKGFYPSDIAVEWESNGQPENNYKTTPPVLDSDGSFFLYSKLTVDKSRWQQGNVFSCSVMHEALHNHYTQKSLSLSPGGGGGSGGGGSGGGGSGGGGSAAEPVEDNSINFVAMKFIDNTLYFIAENDENGGGSYFGKLESKLSVIRNLNDQVLFIDQGNRPLFEDMTDSDSRDNAPRTIFIISKYGDSQPRGLAVTISVKSEKISTLSSENKIISFKEMNPPDNIKDTKSDIIFFQRSVPGHDNKVQFESSSYEGYFLASEKERDLFKLILKKEDELGDRSIMFTVQNED
light: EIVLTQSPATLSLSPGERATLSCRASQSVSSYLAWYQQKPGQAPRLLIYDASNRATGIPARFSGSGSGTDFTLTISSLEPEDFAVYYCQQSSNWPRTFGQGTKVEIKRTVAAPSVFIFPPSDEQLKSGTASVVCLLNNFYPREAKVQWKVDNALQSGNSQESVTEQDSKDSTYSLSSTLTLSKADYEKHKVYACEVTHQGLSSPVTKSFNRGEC
For B1, the “IL18 biological activity on HEK Blue IL18 (trans activity only), attenuation relative to recombinant human IL18” value [1] was > 100000 fold, the “SEAP release of PD-1 decorated HEK Blue IL18 (cis activity), increase relative to non targeted FUSE827” value [1] was ~100 fold and the “SEAP release, PD-1 decorated HEK Blue IL-18 against non-decorated HEK Blue IL18” value [1] was ~100 fold.

B2: FUSE-783 (antibody, human IgG1, kappa, L234A L235A)
heavy 1: QVQLVESGGGVVQPGRSLRLDCKASGITFSNSGMHWVRQAPGKGLEWVAVIWYDGSKRYYADSVKGRFTISRDNSKNTLFLQMSSLRAEDTAVYYCATNDDYWGQGTLVTVSSASTKGPSVFPLAPSSKSTSGGTAALGCLVKDYFPEPVTVSWNSGALTSGVHTFPAVLQSSGLYSLSSVVTVPSSSLGTQTYICNVNHKPSNTKVDKKVEPKSCDKTHTCPPCPAPEAAGGPSVFLFPPKPKDTLMISRTPEVTCVVVDVSHEDPEVKFNWYVDGVEVHNAKTKPREEQYNSTYRVVSVLTVLHQDWLNGKEYKCKVSNKALPAPIEKTISKAKGQPREPQVYTLPPSREEMTKNQVSLSCAVKGFYPSDIAVEWESNGQPENNYKTTPPVLDSDGSFFLVSKLTVDKSRWQQGNVFSCSVMHEALHNRFTQKSLSLSPGK
heavy 2: QVQLVESGGGVVQPGRSLRLDCKASGITFSNSGMHWVRQAPGKGLEWVAVIWYDGSKRYYADSVKGRFTISRDNSKNTLFLQMSSLRAEDTAVYYCATNDDYWGQGTLVTVSSASTKGPSVFPLAPSSKSTSGGTAALGCLVKDYFPEPVTVSWNSGALTSGVHTFPAVLQSSGLYSLSSVVTVPSSSLGTQTYICNVNHKPSNTKVDKKVEPKSCDKTHTCPPCPAPEAAGGPSVFLFPPKPKDTLMISRTPEVTCVVVDVSHEDPEVKFNWYVDGVEVHNAKTKPREEQYNSTYRVVSVLTVLHQDWLNGKEYKCKVSNKALPAPIEKTISKAKGQPREPQVYTLPPSREEMTKNQVSLWCLVKGFYPSDIAVEWESNGQPENNYKTTPPVLDSDGSFFLYSKLTVDKSRWQQGNVFSCSVMHEALHNHYTQKSLSLSPGGGGGSGGGGSGGGGSGGGGSAAEPVEDNVINFVAMKFIDNTLYFIAENDENGGGSYFGKLESKLSVIRNLNDQVLFIDQGNRPLFEDMTDSDVRDNAPRTIFIISKYGDSQPRGLAVTISVKVEKISTLSVENKIISFKEMNPPDNIKDTKSDIIFFQRSVPGHDNKVQFESSSYEGYFLAVEKERDLFKLILKKEDELGDRSIMFTVQNED
light: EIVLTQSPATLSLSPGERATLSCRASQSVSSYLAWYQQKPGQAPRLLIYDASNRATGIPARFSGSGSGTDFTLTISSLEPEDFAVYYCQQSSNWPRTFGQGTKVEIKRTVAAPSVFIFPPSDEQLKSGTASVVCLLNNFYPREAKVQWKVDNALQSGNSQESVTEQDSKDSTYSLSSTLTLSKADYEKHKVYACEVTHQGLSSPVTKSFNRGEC
B2 was tested, and the “IL18 biological activity on HEK Blue IL18 (trans activity only), attenuation relative to recombinant human IL18” value [1] was ~1000 fold, the “SEAP release of PD-1 decorated HEK Blue IL18 (cis activity), increase relative to non targeted FUSE775” value [1] was ~30 fold and the “SEAP release, PD-1 decorated HEK Blue IL-18 against non-decorated HEK Blue IL18” value [1] was ~30 fold.

B3: IL-18AV released from FUSE-442 by enterokinase (ligand)
chain: YFGKLESKLSVIRNLNDQVLFIDQGNRPLFEDMTDSDVRDNAPRTIFIISMYKDSQPRGMAVTISVKVEKISTLSVENKIISFKEMNPPDNIKDTKSDIIFFQRSVPGHDNKMQFESSSYEGYFLAVEKERDLFKLILKKEDELGDRSIMFTVQNED
B3 was tested, and the “EC50-SEAP, HEK-Blue IL-18 reporter cells, EK-cleaved FUSE-442 titrated in medium with 1.25 µg/ml rhIL-18BP (row 'FUSE442 + EK +BP')” value [2] was 211 pg/mL and the “EC50-SEAP, HEK-Blue IL-18 reporter cells, EK-cleaved FUSE-442 titrated in medium alone (row 'FUSE442 + EK')” value [3] was 18.6 pg/mL.

B4: IL-18mut2AV released from FUSE-424 by enterokinase (ligand)
chain: YFGKLESKLSVIRNLNDQVLFIDQGNRPLFEDMTDSDVRDNAPRTIFIISKYGDSQPRGLAVTISVKVEKISTLSVENKIISFKEMNPPDNIKDTKSDIIFFQRSVPGHDNKVQFESSSYEGYFLAVEKERDLFKLILKKEDELGDRSIMFTVQNED
With B4 the “EC50-SEAP, HEK-Blue IL-18 reporter cells, EK-cleaved FUSE-424 titrated in medium alone (table G beside graph F 'EK-FUSE424'; the table row itself is labelled 'FUSE442 + EK')” value [4] was 3.4 pg/mL.
